# Target: R276S/M395R GltPh mutant (Pyrococcus horikoshii) (UniProt O59010)
# Assay: crystal structure
substance,measurement,value
R276S/M395R GltPh mutant (from UniProt O59010 1-417) (natural protein),stoichiometry N,3

# Source: PMC4351760
